# Measured values taken from publication PMC5690661, “The PrpF protein of Shewanella oneidensis MR-1 catalyzes the isomerization of 2-methyl-cis-aconitate during the catabolism of propionate via the AcnD-dependent 2-methylcitric acid cycle” (PLoS ONE, 2017).
# Key:
# SoPrpF = target: T1, SoPrpF (Shewanella oneidensis, UniProt Q8EJW4); assay: HPLC time course; coupled aconitase assay; format: biochemical; details: substrate is the SoAcnD product of 2-methylcitrate; Tris-HCl 50 mM pH 8.0, KCl 100 mM
# T1 construct: gene prpF; recombinant from pPRP196 (pTEV4, N-terminal TEV-cleavable H6 tag), purified as in earlier work; homodimer
# T1 sequence (Q8EJW4 whole entry): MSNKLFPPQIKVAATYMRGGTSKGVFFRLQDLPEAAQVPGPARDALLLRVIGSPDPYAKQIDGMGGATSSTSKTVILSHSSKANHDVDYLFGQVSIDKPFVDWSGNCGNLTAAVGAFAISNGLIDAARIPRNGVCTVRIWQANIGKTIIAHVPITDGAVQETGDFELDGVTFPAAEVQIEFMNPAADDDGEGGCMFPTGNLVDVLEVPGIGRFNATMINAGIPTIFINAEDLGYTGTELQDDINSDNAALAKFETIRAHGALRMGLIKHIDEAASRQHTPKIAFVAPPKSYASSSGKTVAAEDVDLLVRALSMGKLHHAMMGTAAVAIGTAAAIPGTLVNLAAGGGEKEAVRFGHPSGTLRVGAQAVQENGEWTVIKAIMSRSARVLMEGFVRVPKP
# SePrpD = target: T2, SePrpD (Salmonella enterica, UniProt P74840); assay: HPLC of reaction products; format: biochemical; details: 5 mM substrate, Tris-HCl 90 mM pH 8.0, 37°C, 1.5 h
# T2 construct: gene prpD; recombinant, His-tagged, purified from E. coli
# T2 sequence (P74840 1-483): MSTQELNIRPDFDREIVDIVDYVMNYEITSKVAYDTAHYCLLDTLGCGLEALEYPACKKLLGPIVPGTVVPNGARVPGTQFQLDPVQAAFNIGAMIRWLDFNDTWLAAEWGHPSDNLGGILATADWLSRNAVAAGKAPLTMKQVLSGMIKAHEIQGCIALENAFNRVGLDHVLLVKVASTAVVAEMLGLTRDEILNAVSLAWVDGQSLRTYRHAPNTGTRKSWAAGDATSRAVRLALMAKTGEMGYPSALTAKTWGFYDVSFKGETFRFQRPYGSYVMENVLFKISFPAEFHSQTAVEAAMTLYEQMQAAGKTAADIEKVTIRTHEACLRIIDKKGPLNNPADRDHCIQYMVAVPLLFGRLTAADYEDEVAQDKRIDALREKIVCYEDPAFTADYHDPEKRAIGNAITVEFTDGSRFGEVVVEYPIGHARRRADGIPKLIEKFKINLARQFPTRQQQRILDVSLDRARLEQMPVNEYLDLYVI
# [1] = tested on: C/C(C(=O)O)=C(\CC(=O)O)C(=O)O; assay: purified protein; details: Tris-HCl 50 mM pH 8.0, KCl 100 mM, 37°C, Fe/S-reactivated enzyme
# purified protein = substrate: O=C(O)/C=C(/CC(=O)O)C(=O)O; assay: purified protein; details: Tris-HCl 50 mM pH 8.0, KCl 100 mM, 37°C, Fe/S-reactivated enzyme
# [2] = target: the molecule itself; assay: crystal structure; hanging drop vapor diffusion, MES 100 mM pH 6.0, sodium malonate 136 mM, PEG 4K 15% w/v, room temperature; space group P2(1), two chains in the asymmetric unit related by a non-crystallographic twofold axis; 1.22 Å
molecule,measurement,setting,value
C/C(C(=O)O)=C(\CC(=O)O)C(=O)O [2-methyl-cis-aconitate],HPLC time course; coupled aconitase assay,SoPrpF,SoPrpF converted the SoAcnD reaction product into 2-methyl-cis-aconitate over time
CC(C(=O)O)C(O)(CC(=O)O)C(=O)O (stereo not shown) [2-methylcitrate],HPLC of reaction products,SePrpD,SePrpD synthesized 2-methyl-cis-aconitate from 2-methylcitrate
SeAcnA (Salmonella enterica subsp. enterica serovar Typhimurium str. LT2),Km,[1],210 ± 35 µM
same,Vmax,[1],50 µM/min
same,kcat,[1],11.8 ± 0.7 s⁻¹
same,kcat/Km,[1],56700 M⁻¹ s⁻¹
SeAcnB (Salmonella enterica subsp. enterica serovar Typhimurium str. LT2),Km,[1],208 ± 39 µM
same,Vmax,[1],10 µM/min
same,kcat,[1],6.6 ± 0.667 s⁻¹
same,kcat/Km,[1],31700 M⁻¹ s⁻¹
SeAcnB (Salmonella enterica subsp. enterica serovar Typhimurium str. LT2) (protein) MLEEYRKHVAERAAQGIVPKPLDATQMAALVELLKTPPVGEEEFLLDLLINRVPPGVDEAAYVKAGFLAAVAKGDTTSPLVSPEKAIELLGTMQGGYNIHPLIDALDDAKLAPIAAKALSHTLLMFDNFYDVEEKAKAGNEYAKQVMQSWADAEWFLSRPPLAEKITVTVFKVTGETNTDDLSPAPDAWSRPDIPLHAQAMLKNAREGIEPDQPGVVGPIKQIEALQKKGYPLAYVGDVVGTGSSRKSATNSVLWFMGDDIPNVPNKRGGGLCLGGKIAPIFFNTMEDAGALPIEVDVSNLNMGDVIDVYPYKGEVRNHETGELLATFELKTDVLIDEVRAGGRIPLIIGRGLTTKAREALGLPHSDVFRQAKDVAESSRGFSLAQKMVGRACGVKGIRPGAYCEPKMTSVGSQDTTGPMTRDELKDLACLGFSADLVMQSFCHTAAYPKPVDVTTHHTLPDFIMNRGGVSLRPGDGVIHSWLNRMLLPDTVGTGGDSHTRFPIGISFPAGSGLVAFAAATGVMPLDMPESVLVRFKGKMQPGITLRDLVHAIPLYAIKQGLLTVEKKGKKNIFSGRILEIEGLPDLKVEQAFELTDASAERSAAGCTIKLNKEPIVEYLTSNIVLLKWMIAEGYGDRRTLERRIQGMEKWLADPQLLEADADAEYAAVIDIDLADIKEPILCAPNDPDDARLLSDVQGEKIDEVFIGSCMTNIGHFRAAGKLLDNHKGQLPTRLWVAPPTRMDAAQLTEEGYYSVFGKSGARIEIPGCSLCMGNQARVADGATVVSTSTRNFPNRLGTGANVFLASAELAAVAALIGKLPTPEEYQTYVAQVDKTAVDTYRYLNFDQLSQYTEKADGVIFQTAV,Km,purified protein,17 ± 3 µM
same,Vmax,purified protein,21 µM/min
same,kcat,purified protein,34.9 ± 1.67 s⁻¹
same,kcat/Km,purified protein,2.05e+06 M⁻¹ s⁻¹
SeAcnA (Salmonella enterica subsp. enterica serovar Typhimurium str. LT2) (protein) MSSTLREASKDTLQAKDKTYHYYSLPLAAKSLGDIARLPKSLKVLLENLLRWQDGESVTDEDIQALAGWLKNAHADREIAWRPARVLMQDFTGVPAVVDLAAMREAVKRLGGDTSKVNPLSPVDLVIDHSVTVDHFGDDDAFEENVRLEMERNHERYMFLKWGKQAFSRFSVVPPGTGICHQVNLEYLGKAVWSELQDGEWIAYPDSLVGTDSHTTMINGLGVLGWGVGGIEAEAAMLGQPVSMLIPDVVGFKLTGKLREGITATDLVLTVTQMLRKHGVVGKFVEFYGDGLDSLPLADRATIANMSPEYGATCGFFPIDAITLEYMRLSGRSDDLVELVETYAKAQGMWRNPGDEPVFTSTLELDMGDVEASLAGPKRPQDRVALGDVPKAFAASAELELNTAQRDRQPVDYTMNGQPYQLPDGAVVIAAITSCTNTSNPSVLMAAGLLAKKAVTLGLKRQPWVKASLAPGSKVVSDYLAQAKLTPYLDELGFNLVGYGCTTCIGNSGPLPEPIETAIKKGDLTVGAVLSGNRNFEGRIHPLVKTNWLASPPLVVAYALAGNMNINLATDPLGYDRKGDPVYLKDIWPSAQEIARAVELVSSDMFRKEYAEVFEGTEEWKSIQVESSDTYGWQSDSTYIRLSPFFDEMQAQPAPVKDIHGARILAMLGDSVTTDHISPAGSIKPDSPAGRYLQNHGVERKDFNSYGSRRGNHEVMMRGTFANIRIRNEMLPGVEGGMTRHLPGTEAMSIYDAAMLYQQEKTPLAVIAGKEYGSGSSRDWAAKGPRLLGIRVVIAESFERIHRSNLIGMGILPLEFPQGVTRKTLGLTGEEVIDIADLQNLRPGATIPVTLTRSDGSKETVPCRCRIDTATELTYYQNDGILHYVIRNMLN,Km,purified protein,22 ± 2 µM
same,Vmax,purified protein,86 µM/min
same,kcat,purified protein,62.3 ± 1.45 s⁻¹
same,kcat/Km,purified protein,2.83e+06 M⁻¹ s⁻¹
"Shewanella oneidensis MR-1 PrpF K73E variant (SoPrpF^K73E) (enzyme, PrpF (2-methylaconitate isomerase) of Shewanella oneidensis MR-1, with the substitution K73E; prpF+ cloned into pTEV4 (template pPRP196); also called Apo-SoPrpF^K73E; prpF258; source: E. coli, plasmid pPRP221 (pTEV4), IPTG-induced, purified (Maxwell 16 system)) MSNKLFPPQIKVAATYMRGGTSKGVFFRLQDLPEAAQVPGPARDALLLRVIGSPDPYAKQIDGMGGATSSTSETVILSHSSKANHDVDYLFGQVSIDKPFVDWSGNCGNLTAAVGAFAISNGLIDAARIPRNGVCTVRIWQANIGKTIIAHVPITDGAVQETGDFELDGVTFPAAEVQIEFMNPAADDDGEGGCMFPTGNLVDVLEVPGIGRFNATMINAGIPTIFINAEDLGYTGTELQDDINSDNAALAKFETIRAHGALRMGLIKHIDEAASRQHTPKIAFVAPPKSYASSSGKTVAAEDVDLLVRALSMGKLHHAMMGTAAVAIGTAAAIPGTLVNLAAGGGEKEAVRFGHPSGTLRVGAQAVQENGEWTVIKAIMSRSARVLMEGFVRVPKP",binding result,[2],binds
